Data set [1] relates to RcsB-6His (Dickeya dadantii 3937 (EC3937)?). Put plainly: EMSA. As to conditions: 10 mM Tris pH 7.5, 50 mM NaCl, 0.5 mM DTT, 1 mM MgCl2, 2.5% glycerol; 20 min at room temperature; 50 ng DNA in 20 ul; 6% acrylamide-TBE gel.
For data set [2], the system named is OmpR-6His (Dickeya dadantii 3937 (EC3937)). The data set can be described thus: EMSA. As to conditions: 10 mM Tris pH 7.5, 50 mM NaCl, 0.5 mM DTT, 1 mM MgCl2, 2.5% glycerol; 20 min at room temperature; 50 ng DNA in 20 ul; 6% acrylamide-TBE gel. For orientation: In EMSA bound probe runs differently from free probe, usually more slowly.

Take opgC promoter region: the results for the binding in data set [1] and in data set [2] were 300 ng and 500 ng, respectively.

The record behind these values is article PMC4726272.
